The values that follow come from US20180037641A1.

The target of the experiment is P301S human tau, T34 isoform (1N4R), of P301S tg mice (line PS19) (human) (UniProt P10636). Nature of the experiment: cell-based or functional assay.
Chain of P301S human tau, T34 isoform (1N4R), of P301S tg mice (line PS19) (human) (P10636 other isoform, or with tags, fused parts or gaps P301S P301S P301S P301S): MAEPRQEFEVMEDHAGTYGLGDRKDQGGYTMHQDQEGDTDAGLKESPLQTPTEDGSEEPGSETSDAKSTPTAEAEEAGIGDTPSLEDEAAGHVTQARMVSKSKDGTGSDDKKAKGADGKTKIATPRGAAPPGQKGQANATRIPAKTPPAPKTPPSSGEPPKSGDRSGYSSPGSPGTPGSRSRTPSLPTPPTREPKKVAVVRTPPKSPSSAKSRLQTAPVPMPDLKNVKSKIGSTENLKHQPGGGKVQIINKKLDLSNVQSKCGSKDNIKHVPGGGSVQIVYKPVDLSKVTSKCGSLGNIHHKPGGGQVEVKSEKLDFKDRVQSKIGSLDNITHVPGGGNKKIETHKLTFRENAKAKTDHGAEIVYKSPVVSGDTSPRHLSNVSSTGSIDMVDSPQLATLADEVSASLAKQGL

B1: HJ8.5 (antibody, V domains shown)
VH: EVKVEESGGGLVQPGGSMKLSCVVSGFTFSNYWVNWVRQSPEKGLEWVAQIRLKSDNYATHYEESVKGRFTISRDDSKSSVYLQMNNLRAEDSGIYYCTNWEDYWGQGTTLTVSS
VL: DIVLTQSPASLAVSLGQRATISCRASQSVSTSRYSYIHWYQQKPGQPPKLLIKYASNLESGVPARFSGSGSGTDFTLNIHPLEEEDAATYYCHHSWEIPLTFGAGTKLELK
Molecule B1 returned an antibody concentration that significantly blocked uptake and seeding activity of 0.5 µg/mL; a lowest antibody concentration that blocked seeding activity (titration against a fixed amount of P301S brain lysate) of 0.25 µg/mL.
